The values that follow come from the nanobody polyreactivity screen of Harvey et al. (2022).

The data set in a line: yeast display, Sf9 membrane polyspecificity reagent, FACS + sequencing; frameworks hold sequencing errors. The method, boiled down: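 In a synthetic yeast display library (Saccharomyces cerevisiae BJ5465), nanobody expression was induced with galactose for 36–48 hours. FACS gates were set low and high (top ~1%) using anti-HA fluorescence for expression and streptavidin fluorescence for binding of the Sf9 membrane reagent. Each polyreactivity label is drawn from the gate of origin.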
Consider “QVQLVESGGGLVQPGGSLLLRGAASGSIYYRNVMGWYRPAPGKERELVAAISSGGNTYYADSVKGRFTISRDNAKNTVYLQMNSLKPVDTAVYYCNAEYEGLSFGWYEYWYDYWGQGTQVTVSS”, for which the “polyreactivity (PSR sort gate)” value was “high polyreactivity”.
Consider “QFQLVESGGGLVQAGGSLRLSCAASGRIFYYYAMGWYRQAPGKERELVAAITRGGSTYADSVKGRFTISRDNAKNTVYLQMNSLKPEDTAVYYCAATYWYWDFRWMDYWGQGTQVTVSS”, for which the “polyreactivity (PSR sort gate)” value is given as “high polyreactivity”.
Consider “QVQLVESGGGLVQAGGSLRLSCAASGSTFYANAMGWYRQAPGKERELVAAISSRGGSTSYADSVKGRFTISRDNAKNTVYLQMNSLKPEDTAVYYCNKVTRYYYRGFDYWGQGTQVTVSS”, for which the “polyreactivity (PSR sort gate)” value is reported as “high polyreactivity”.
In the case of “QVQLVESGGGLVQAGGSLRLSCAASGSIIGDNAMGWYRPAPGKERELVAAITGGDSTYYADSVKGRFTISRDNAKNTVYLQMNSLKPEDTAVYYCNADRFRGRTVDGDYWGQGTQVTVSS”, the “polyreactivity (PSR sort gate)” value is recorded as “low polyreactivity”.
As to “QVQLVESGGGLGQAGGSLRLSCAASGSTFQTKAMGWYRQAPGKERELVAAINSGGGTNYADSVKGRFTISRDNAKNTVYLQMNSLKPEDTAVYYCATDVLPRKYVSDYPSGAYDYWGQGTQVTVSS”, the “polyreactivity (PSR sort gate)” value is listed as “low polyreactivity”.
In the case of “QVQLVESGGGLVQAGGSLRLSCAASGRIFSEYAMGWYRQAPGKERELVAAISRRGGRTYYADSVKGRFTISRDNAKNTVYLQMNSLKPEETAVYYCAAKIIWFTIRHGSAGFKYWGQGTQVTVSS”, the “polyreactivity (PSR sort gate)” value is “high polyreactivity”.
In the case of “QVQLVESGGSLVQAGGSLRLSSAASGITFSDYAMRWYRPAPGKESELVAGITSGGSTYYADSVKGRFTISRDNAKNTVYLQMNSLKPEDSAVYYCAAVRRWKYDWGQGTQVTVSS” it was “high polyreactivity”.
As to “QVQLVESGGGLVQAGGSLRLSCAASGLTLAPYAMGWYRQAPGKERELVAAITFSGGSTYYADSVKGRLSISRDNAKNTVYLQMNSLKPEDTAVYYCARDTWAYKNGYPYYSWGQGTQVTVSS”, the “polyreactivity (PSR sort gate)” value is “low polyreactivity”.
As for “QVQLVESGGGLVQAGGSLRLSCAASGIIFYPYAMGWYRQAPGKESELVADITSGGGTNYAYSVKGRITISRDNAKNTVYLQMNSLKQEDTAVYYCAAEVRGYHWGTYYEFYYWGQGTQVTVSS”, the “polyreactivity (PSR sort gate)” value is recorded as “low polyreactivity”.
In the case of “QVQLVESGGGLVQAGGSLRLSCPASGIIFNLYAMGWYRQAPGKERELVAAISWSGGSTDYADSVKGRFTISRDNAKNTVYLQMNSLKPEDTAVYYCATSFLYPYFDEDDYWGQGTQVTVSS” it was “high polyreactivity”.
On to “QVQLVESGRGIVQAGGSLRLSCAASGRIFRVNAMGWYRQAPGKERELVATISYSGGSTYADSVKGRFTISRDNAKNTVYLQMNSLKPEDTAVYYCAARPYYRYYRYPYGYWGQGTQVTVSS”, for which the “polyreactivity (PSR sort gate)” value is recorded as “high polyreactivity”.
Regarding “QVQLVESGGGLVQAGGSLRLSCAASCRIFSYYVMGWYRQAPGKERELVAAISYRGGGTYYADSVKGRFTISRDNAKNNFYLQMNSLKPEDTAVYYCNADTYSNTYRAYDYWGQGTQVTVSS”, the “polyreactivity (PSR sort gate)” value was “low polyreactivity”.
In the case of “QVQLVESGGGLVQAGGSLRLSCAASGRTFKRNAMGWYRQAPGKEREFVAVITGSGGSTYYADSVKGRFTISRDNAKNTVYLQMNSLKPEDTAVYYCAAQATRYGQYTYDYWGQGTQVTVSS”, the “polyreactivity (PSR sort gate)” value was “high polyreactivity”.
In the case of “QFQLVESGGGLVQAGGSLRLSCAASGSIFRENAMGWYRQAPGKEMELVAAIYVRDGDTFYADSVKGRFTISRDNAKNTVYLQMNSLKPEDTAVYYCAADQQKWYTGYDYWGQCTQVTVSS” it was “low polyreactivity”; in that of “QVQLVESGGGLVQSGGSLRLSCAASGRIFGKYAMGWYRQAPGKERELVARISFSGGTTYYADSVKGRFTISRDNAKNTVYLQMYSLKPEDTAVYYCSARSVWSQRWAYDSWGQGTQVTVSS”, “high polyreactivity”.
For “QDQHVESGGGLVQAGGSLRLSCAASRRTIDLYAMGWYRQAPGKERELVAAITKGGGSTYYADSVKGRFTISRDNATNTVYLQMNSLKPEDTAVFYCAARKYKRIYRISSGIGYYWGQGTQVTVSS”, the “polyreactivity (PSR sort gate)” value is recorded as “high polyreactivity”.
On to “QVQLVESGGGLVQAGGSLRLSSAASGITFKAYAMGWYRHAPGKERELVAAISGSGGATYYADSVEGRFTISRDNEKNTVYLQMISLKPEVTAVYYCAARAVSLTGYRFGYWGQGTQVTVSS”, for which the “polyreactivity (PSR sort gate)” value is listed as “high polyreactivity”.
With “QVQLVESWGCLVQAGGSLRLSCAASGFTFESNAMGWYRQAPGKERELVAAITSSGGRTYYADSVKGRFTISRVNAKNTVYLQMNSLNPEDSAVYYCAATGKAPRESGGVYSMDWGQGTQVTVSS”, the “polyreactivity (PSR sort gate)” value is listed as “low polyreactivity”.
For “QVQLVESGGGLVQAGGSLRLSCAASGSIFESYAMGWYRQAPGKEWELVASISGGGSTYYADSVKGRFTISRDNAKNTVYLQMNSLKPEDTAVYYCATVYVRYRQSRLIRYGYWVQGTQVTVSS”, the “polyreactivity (PSR sort gate)” value is on record as “high polyreactivity”.
For “QVQLVESGGGLVQAGGSLRLSCAASGRIFRSNAMGWYRQAPRKERELVAVITTAGSTNYADSVKGRFTISRDNAKNTVYLQMNSLKQEDTAVYYCATENGTRKRRYDYWGQGTQVTVSS”, the “polyreactivity (PSR sort gate)” value is “low polyreactivity”.
In the case of “QVQLVESGGRLVQAGGSLRLSCAASGITFGNAMGWYRQAPGKERELVAGITFSSGSTYYADSVKGRFTISRDNAKNTVYLLMNSLKPEDTAVYYCATDSSKHPYSPTLLKFDYWGQGTQVTVSS” it was “low polyreactivity”.
For the sequence “QVQHVESGGGLVQAGGSLRLSCAAYGRTLDVNAMGWYRQAPGKERELVAAIDWGVGTTYYADSVKGRFTISRDNAKNTVYLQMNSLKPEDTAVYYCAVEVYYSVYGYPVQYYYWGQGTQVTVSS”, the “polyreactivity (PSR sort gate)” value is listed as “high polyreactivity”.
“QVQHVESGGGLVQAGGSLRLSCASSGRIFPTNAMGWSRQAPGKDRELVASITRSGSTYYADSVKGRFTISRDNAKNTVYLQMNSLKPEDTAVYNCAAYAYIFMDWGGYPYYLYEYEYLGQGTQVTVSS”: the “polyreactivity (PSR sort gate)” value was “low polyreactivity”.
For “QVQLVESGGGLVQAGGSLRLSCAASGSIFVRNVMGWYRQAPGKERELVAAISGSGGSTYYADSVKGRFTISRDNAKNTVYLQMNSLKPEDTAVYYCAAPRNLYGVYSYYYWGQGTQVTVSS” the value was “high polyreactivity”; for “QVQLVESGGGLVQAGGSLRLSCAASGSIFGAYAMGWSRQAPGKERELVAAISGSGTSTYYADSVKGRFTISRDNAKNTVYLQMNSLKQEDTAVYYCAADGTYFYIYLGDRFDYWGQGTQVTVSS”, “low polyreactivity”.
As to “QVHLVESGGGLVQAGGSLRLSCAASGLIIRYYAMGWYRQAPWKERELVAAITSRGGSTYYADSVKGRFKISRDNAKNTVYLQMNSLKPEDTAVYSCAAGLIFVSRFYVPYDYWGQGTQVTVSS”, the “polyreactivity (PSR sort gate)” value is recorded as “high polyreactivity”.
Regarding “QVQLVESGGGLVQAGGSLRLSCAASGYIFYYYAMGWYRQAPGKERELVAAITFSGGSTYYADSVKGRFTISRDNAKNNVYLQMNRLKPEDTAGYYCAKVELRDAAELGSDEYDYWGQGTQVTVSS”, the “polyreactivity (PSR sort gate)” value is “low polyreactivity”.
For “QVQLVESGGGLFQAGGSLRLSCAASGRTFRVYAMGWYRQAPGKEREFVAAISYSGGRTNYADSVKGRFTISRDYAKNTVYLQKNSLKPEDTAVYYCAARYTWAEGDYWGQGTQVTVSS”, the “polyreactivity (PSR sort gate)” value is “low polyreactivity”.
Consider “QVQLVESGGGLVQAGGSLRLSCAASGRIFYPYAMGWYRQAPGKERELVASITSGGGTYYADSVKGRFTISRDNAKNSVYLQMNSLKPEDTAVYYCAAKYYTSWIRYDYWGQGTQVTVSS”, for which the “polyreactivity (PSR sort gate)” value is listed as “low polyreactivity”.
For “QVQLVESGGGLVQAGGSLRLSCAASGFTFIYNAMGWYRQAPGKERELVAAISRGASTNYADSVKGRFTISRDNAKNTVYLQMNSLKPEDTAVYYCAKRTTRLAPYDYWGQGTQVTVSS”, the “polyreactivity (PSR sort gate)” value is “high polyreactivity”.
In the case of “QVQLVESGGGLVQAGGSLPLSCAASGRIIDRYAMGWSRQATGKERDLVASISSGGSTYYADSVKGRFTISRDNAKNTVYLQMNSLKPEDTAVYYCNAEARSRRYRYDYWGQGTQVTVSS” it was “high polyreactivity”.
In the case of “QVQLVESGGGIVQAGGSLRLSCAASGRIFRIYAMGWYRQAPGKEWELVASISWGGASTYYADSVKGRFTISRDNAKNPVYLQMNSLKPEDTAVYDCAAVGYQGQYDYRSFGSWGQGTQVTVSS”, the “polyreactivity (PSR sort gate)” value is given as “high polyreactivity”.
Consider “QVQLVESGGGLVQAGGSLSLSCAASGFTFTRYVMGWYRQAPGKERELVAAISINGGRTYYADSVKGSFTNSRDNAKNTVYLQMNSLKPEDTAVYYWAAYKTYGSKYVFVDPGEYYYWGQGTQVTVSS”, for which the “polyreactivity (PSR sort gate)” value is “high polyreactivity”.
In the case of “QVHLVESGGGLVQAGGILRLRSAASGSTVYGYAMGWYRQAPGKERELVAAITRSGGSTYYADSVKGRFTISRDNATNKVYLQMNSQKPEDTEFYYCNKYGYKGGDGYDYWGQRTQVTVSS” it was “high polyreactivity”; in that of “QVQLVESGGGLVQAGGSLRLSCAASGSTFRSYAMGWYRQSPGNERELVAAISYSGDSTYYADSVKGRFTISSDNAKNTVYLQMNSLKPEDTAVYYCAALRDWDIQCEPWKRYGYWGQGTQVTVSS”, “low polyreactivity”.
As to “QVQLVESGGGLVQAGGSLRLSCPASGGTFSFYTMGGYRQSPGKEREWVAAIDSTGRTNYADSVKGRFTISRDYPKNTVYLQMNRLIPEDTAVYYCAAVSPTYPYTFYRYNYWGQGTQVTVSS”, the “polyreactivity (PSR sort gate)” value is given as “low polyreactivity”.
For the sequence “QVQRVESGGGLVQAGGSLRLSCAASGRTFAGYAMGWYRQAPGKERELVAAITTGGSTKYADSVKGRLTISRDNAKNTVFLQRTSLKPEDTAVYYCNARKRVYSGNTLMYYWGQGTQVTVSS”, the “polyreactivity (PSR sort gate)” value was “high polyreactivity”.
For “QVQLVESGGGLVQSGGSLRLSCAASGFTFSRYAMGWYRQAPGKERELVAAINWSGGSTYYADSVKGRFTISRDNAKNTVYLQMNSLKPEDTAVYSCAKPAGGSGYDSWGQGTQVTVSS” the value was “high polyreactivity”; for “QVQLVESGGGLVQAGGSLRLSCAASGSIFGGYGMGWYRQAPGKERELVAAITSGSSTYYADSVKGRFTISRDNAKNTVYLQMNSLKAEDTAVYYCAARPYTHSAYEGDYWGRGTQVTVSS”, “low polyreactivity”.
Regarding “QVQLVESGGGLVQAGGSLRLSCAASGSIFGLYAMGWYRQAAGKERELVAAISASGGSTYYADSVKGRFTISRDNAKNTVYLQMNSLKPEDTAVYYCAVKWRGGPQRGFNYWGQGTQVTVSS”, the “polyreactivity (PSR sort gate)” value is “high polyreactivity”.
